Measured values taken from patent publication US20170204167A1 (INSTITUTE FOR RESEARCH IN BIOMEDICINE, published 2017).

B1: FI28 variant 1 (antibody, V domains shown)
VH: EVQLVESGGGAVQPGESLKLSCAASGFTFSNYGMHWVRQAPGKGLEWVAVISYDGSNKYYADSVKGRFTISRDNSKDTLYLQMNSLRAEDTALFYCAKERPLRLLRYFDWLSGGANDYWGQGTLVTVSS
VL: DIVMTQSPDSLAVSLGERATINCKSSQSVLYSSNNKNYLAWYQQKPGQPPKLLIDWASTRESGVPDRFSGSGSGTDFTLTISNLQVEDVAVYYCQQYYRSPSFGQGTKLEIK
B2: FI6 variant 3 (antibody, V domains shown)
VH: QVQLVESGGGVVQPGRSLRLSCAASGFTFSTYAMHWVRQAPGKGLEWVAVISYDANYKYYADSVKGRFTISRDNSKNTLYLQMNSLRAEDTAVYYCAKDSQLRSLLYFEWLSQGYFDYWGQGTLVTVSS
VL: not shown
B3: FI6 variant 2 (antibody, V domains shown)
VH: QVQLVQSGGGVVQPGRSLRLSCVASGFTFSTYAMHWVRQAPGRGLEWVAVISYDGNYKYYADSVKGRFSISRDNSNNTLHLEMNTLRTEDTALYYCAKDSQLRSLLYFEWLSQGYFDPWGQGTLVTVTS
VL: DIQMTQSPDSLAVSLGARATINCKSSQSVTFNYKNYLAWYQQKPGQPPKVLIYWASARESGVPDRFSGSGSGTDFTLTISSLQAEDVAVYYCQQHYRTPPTFGQGTKVEIK

Tests used:
HA of H5N1 A/HK/491/97 = HA of H5N1 A/HK/491/97 (influenza A virus H5N1 A/HK/491/97); assay: cell-based or functional assay
HA of H5N1 A/INDO/5/05 = HA of H5N1 A/INDO/5/05 (influenza A virus H5N1 A/INDO/5/05); assay: cell-based or functional assay
[1] = biological target: HA of H7N1 A/ck/IT/13474/99 (influenza A virus H7N1 A/ck/IT/13474/99); assay: cell-based or functional assay
HA of H5N1 A/WS/MONG/05 = HA of H5N1 A/WS/MONG/05 (influenza A virus H5N1 A/WS/MONG/05); assay: cell-based or functional assay
HA of H5N1 A/HK/213/03 = HA of H5N1 A/HK/213/03 (influenza A virus H5N1 A/HK/213/03); assay: cell-based or functional assay
[2] = biological target: T1, HA of H7N1 A/ck/FPV/Rostock/34 (influenza A virus H7N1 …, UniProt P03459 19-563); assay: cell-based or functional assay
HA of H5N1 A/AH/1/05 = HA of H5N1 A/AH/1/05 (influenza A virus H5N1 A/AH/1/05); assay: cell-based or functional assay
HA of H1N1 A/PR/8/34 = HA of H1N1 A/PR/8/34 (influenza A virus H1N1 A/PR/8/34, UniProt P03452 18-565); assay: cell-based or functional assay
HA of H5 A/VN/1194/04 = HA of H5 A/VN/1194/04 (influenza A virus H5 A/VN/1194/04); assay: cell-based or functional assay
[3] = biological target: T1, HA of H7N1 A/ck/FPV/Rostock/34; assay: cell-based or functional assay; remark: listed apart in the source
[4] = biological target: HA of H14N5 A/mallard/Astrakhan/263/82 on transfected 293 cells (influenza A virus H14N5 …, UniProt P26136 18-568); assay: staining of HA-transfected 293 cells
[5] = biological target: HA of H12N5 A/duck/Alberta/60/76 on transfected 293 cells (influenza A virus H12N5 …, UniProt P03446 17-564); assay: staining of HA-transfected 293 cells
[6] = biological target: HA of H13N6 A/gull/Maryland/704/77 (ELISA antigen) (influenza A virus H13N6 …, UniProt P13103 19-532); assay: ELISA on recombinant or purified HA
[7] = biological target: HA of H4N6 A/duck/Czechoslovakia/56 (ELISA antigen) (influenza A virus H4N6 …, UniProt P19696 17-527); assay: ELISA on recombinant or purified HA
[8] = biological target: HA of H2N2 A/Singapore/1/57 (influenza A virus H2N2 A/Singapore/1/57, UniProt Q67333 16-525); assay: ELISA on recombinant or purified HA

Row | Binder | Neutralization of HA-pseudotypes (IC90, µg/ml) (HA of H5N1 A/HK/491/97) | Neutralization of HA-pseudotypes (IC90, µg/ml) (HA of H5N1 A/INDO/5/05) | Neutralization of HA-pseudotypes (IC90, µg/ml) [1] | Neutralization of HA-pseudotypes (IC90, µg/ml) (HA of H5N1 A/WS/MONG/05) | Neutralization of HA-pseudotypes (IC90, µg/ml) (HA of H5N1 A/HK/213/03) | Neutralization of HA-pseudotypes (IC90, µg/ml) [2] | Neutralization of HA-pseudotypes (IC90, µg/ml) (HA of H5N1 A/AH/1/05) | Neutralization of infectious viruses (IC50, µg/ml) (HA of H1N1 A/PR/8/34) | Neutralization H5 A/VN/1194/04 IC50 (µg/ml), pseudovirus (HA of H5 A/VN/1194/04) | Neutralization H7 A/ck/FPV Rostock/34 IC50 (µg/ml), pseudovirus [3] | binding result [4] | binding result [5] | EC50 [6] | EC50 [7] | EC50 [8]
1 | B1 | 0.05 µg/mL | 0.35 µg/mL | > 100 µg/mL | 0.04 µg/mL | 0.33 µg/mL | > 100 µg/mL | 0.05 µg/mL | > 100 µg/mL | – | – | – | – | – | – | –
2 | B2 | – | – | – | – | – | – | – | – | 0.0035 µg/mL | 0.0274 µg/mL | binds | binds | 0.062 µg/mL | 0.185 µg/mL | 0.021 µg/mL
3 | B3 | 0.07 µg/mL | 0.31 µg/mL | 1.87 µg/mL | 0.03 µg/mL | 0.02 µg/mL | 0.09 µg/mL | 0.05 µg/mL | 2.2 µg/mL | 0.0054 µg/mL | 0.02 µg/mL | binds | binds | 0.088 µg/mL | – | 0.029 µg/mL
